Laboratory results published in the nanobody polyreactivity screen of Harvey et al. (2022).

Experiment: yeast display, Sf9 membrane polyspecificity reagent, FACS + sequencing; frameworks hold sequencing errors
Method in brief: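 Polyreactivity labels are assigned by the sorting gate from which each nanobody was recovered. The gates were low and high (top ~1%), set on anti-HA fluorescence for expression and streptavidin fluorescence for reagent binding. Before sorting, galactose-induced (36–48 hours) yeast display cells were stained for 1 hour at 4 °C with 10% biotinylated, detergent-solubilized Sf9 membrane reagent.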

QVQLVESGGGLVQAGGSLRLSCAAYGRIFSAYVMGWYRQAPGKERELVAAISSTGSTYYADSAKGRFTISRDNAKNTVYLQMNSLKPEDTAVYYCAKRFFQQGYYYWGQGTQVTVSS
polyreactivity (PSR sort gate): low polyreactivity

QVQLVESGGGLVQAGGSLRLSCAASGFIFDGYTMGRYRQAPGKERELVAAISRSGGRTYYADSVKGRFRISRDNAKNTVYLQMNSLKPEDTAVYYCAVRYRLYSQTVASDYGYWGQGTQVTVSS
polyreactivity (PSR sort gate): high polyreactivity

QVQLVESGGGLVQAGGSLRLSCAASGLIFYKYAMGWYRQAPGNERELVAAISRGDNTYYADSVKGRFTISRDNAKNTVYLQMNSLKPEDTALYYCAAYRWIYQSQYQGYWLDYWGQGTQVTVSS
polyreactivity (PSR sort gate): high polyreactivity

QVQLVESGGGLVQAGGSLRLSCAASGITFDNYAMGWYRQAPGKEWELVAAISSDDNTTYADSVKGRFTISRDNAKNTVYLQMNSLKPEDSAVYYCAADSRIYGYWEYDYCGQGTQVTVSS
polyreactivity (PSR sort gate): low polyreactivity

QVQLVESGGGLVQAGGSLRLSSAASGGIFRYYAMGLYRQAPGKERELVAAITSSGTSTYYADSVKGRFTISRDYAKNTVYLQMNSLKPEDTAVYYCARVVRPTDGDYWGLGTQVTVSS
polyreactivity (PSR sort gate): high polyreactivity

QLQLLESGGGLDQPGGSLRLSSAASGRTFYRYVMGWYRQEPGKERELVAAIRSSGTTTYYADSVKGRFTISRDNAKNTVYIKMNCVIPEDTAVYYCARDSYRGYVYSLDYWGQGTQVTVSS
polyreactivity (PSR sort gate): high polyreactivity

QVQLVESGGGLVQAGGSLRLSCAASGGIFQGYTMGWYRQAPGKERELVAAISRRGGSTYYADSVKGRFTNSRDNAKNTVYLQMNSVKPEDTAVYYCAAGKPLQLPRYDYWGQGTQVTVSS
polyreactivity (PSR sort gate): low polyreactivity

QVQLVESGGGLVQAGGSLRLSCAASGSTFRSYAMGWYRQSPGKERELVAAISTRGGSTYYADSVKGRFTISRDNAKNTVYLQMNSLKPEDTAVYYCAVEIVWAYGPTDYYYWGQGTQVTVSS
polyreactivity (PSR sort gate): high polyreactivity

QVQLVESGGGLVQAGGSLRLSCAASGFTFTHYAMGWYRQAPGKERELVAAITDTGGGTYYADSVKGRFTISRDTAKNTVYLQMNSLKPEDTAVYYCAKPTSYRGYYSWGQGTQVTVSS
polyreactivity (PSR sort gate): high polyreactivity

QVQLEESGGGIVQAGGSLRLSCAASGSTFVLYAMGWYRPAPGKERELVAAITSGGSTYYADSVKGRFTISRDNAKNTVYLQMNSLKPEDTAVYYCAASYWDTEPGYREYDYWGQGTQVTVSS
polyreactivity (PSR sort gate): low polyreactivity

QVQLVESGGGLVQAGGSLRLTCAASGRTYNLYAMGWSRQAPGKERELVAAISSSTDSTYYAYSVKGRFTISRDNAKITVYLEMNSLKPEDTSVYYFAARRPSYPRYGYWGQGTQVTVSS
polyreactivity (PSR sort gate): high polyreactivity

QVQLVESGGGLVQAGGSLRLSCAASGSTFGYAMGWNRQAPGKERELVAAINWSGSRTYYADSVKGRFTISRDNAKNTVYLQMNSLKPEDTAVYYCAVLYAGDSPDFDYWGQGSQVTVSS
polyreactivity (PSR sort gate): high polyreactivity

QVQLVESGGGLVQAGGSLRLSCAASGITFGRNTMGWYRQAPGKERELVAAIDSGGNTYADSVKGRFTISRDNAKNTVYLQMNSLKPEDTAVYYCAKDVYSYYYPYRYESWGQGTQVTVSS
polyreactivity (PSR sort gate): low polyreactivity

QVQLVESGGGLVQAGGSLRLSCAASGSIFYTNAMGWYRQAPGKEREMVATITSSTGSTNYADSVKGRFTISRDNAKITVYLQMNSLKPEDTAVYYCAKRDGYWVYYQMDYWGQGTQVTVSS
polyreactivity (PSR sort gate): low polyreactivity

QDQLVESGGGLVQAGGSLRLSSAASGLTLHGNAMGWYRHAPGKERELVATITSSGGSTFYADSVKGRFTLSRDNAKNTVYLKMNSMKPEDTAVYYCNADAPYSVDYYVRFDYWGQGTQVTVSS
polyreactivity (PSR sort gate): low polyreactivity

QVQHVESGGGLVQAGGSLRLSCAASGSTFYYYAMGWYRQAPGKERELVAAIRSDVSTNYADSVKGRFTISRDNAKNTVYLQMNSLKPEDTAVYYCAARFPWNRVTYDYWGQGTQVTVSS
polyreactivity (PSR sort gate): low polyreactivity

QVQLVESGGGLVQAGGSLRLSCAASGYIFSRNDRGWYRQAPGKERELVARITGSAGSTYYADSVKGRFTISRDNAKNTVYLQMNSLKPEDTAVYYCARRWYTWRKNKYCRMDYWGQGTQVTVSS
polyreactivity (PSR sort gate): low polyreactivity

QVQLVESGGGLVQAGGSLRLSCAASGSIFVGNAMGWYRPAPGKERELVAAISSSGGSTYYADSVKGRFTISRDNAKNTVYLQMNSLKPEDTAVYYCAADIFSPAFDYWGQGTQVTVSS
polyreactivity (PSR sort gate): low polyreactivity

QVQLVESGGGLVQAGGSLRLSCAASGRTFANYAMGWYRQAPGKERELVAAISFSTVSTYYADSVKGRFTISRDNAKNTVYLQMNSLKPEDTAVYYCAARRLGYYRKVKELDYWGQGTQVTVSS
polyreactivity (PSR sort gate): high polyreactivity

QVQLVESGGGLVQAGGSLRLSCAASGFIFQEYAMGWYRQAPGKERELVAAITSGGSTNYADSVKGRFTISRDNAKNTVYLQMNSLKPADTAVYYCNVDSPDYYYDYDYWGQGTQVTVSS
polyreactivity (PSR sort gate): low polyreactivity

QGQLVESGGGLVQAGGSLRFSCAASGRIFSVYDMGWYRQAPGTERELVAAIDTSDGSTNYADSVKGRFTISRDNAKNSVYLQMNSLKPEDTAVYYCNATDSYVPFDYWGQGTQVTVSS
polyreactivity (PSR sort gate): low polyreactivity

QVQLVESGGGLVQAGGSLRISCAASGITFQSNAMGWYRQAPGTERELVAGITGNGGSTYYADSVKGRFTISRDNAKNTVYLQMNSLKPEDTAVYYCNIGRRKRTRYDYWGQGTQGTVSS
polyreactivity (PSR sort gate): high polyreactivity

QVQLVESGGGLVQAGGSLRLSCAASGSIFLIYAMAWYRQAPGKERELVAAISSGGSTYYADSVKGRFTISRDNAKNTVYLQMNSLKPEDTAVYYCATYSTSVAYHLYYWGQGTQVTVSS
polyreactivity (PSR sort gate): low polyreactivity

QVQLVESGGGLVQAGRSLRLSCAASGSTYGYYAMGWSRQAPGKERELVAAISSTGGRTYYADSVKGRFTISRDNAKNTVYVQMNSLKPEDTAVYYCAARQLSSHYDYWGQGPQVTVSS
polyreactivity (PSR sort gate): low polyreactivity

QVQLVESGGGLVQAGGSLRLSCAASGSIFFVYDMGWYRQAPGKERELVAAITWSGGRTTYADSVKGRFTISRDNAKNTVYLQMNSLKPEDTAVYYCAKAWPDHWYSRYDYWGQGTQVTVSS
polyreactivity (PSR sort gate): low polyreactivity

QVQLVESGGGLVQAGGSLRLSCAASGITFSRYAMGWYRQAPGKERELVAAISSGGSTYYADSVKGRFTISRDNAKNTVYLQMNSLIPEDTAVYYCAADGLTGSKYRATGYYWGQGTQVTVSS
polyreactivity (PSR sort gate): high polyreactivity

QVQLVESGGGLVQAGGSLRLSCAASGSTFYLNPMGWYRQAPGKERELVAVITSSGGSTNYADSVKGRFTISRDNAKITVYLQMNSLKPEDSAVYYCNRRPYPSYDYWGHGTQVTVSS
polyreactivity (PSR sort gate): low polyreactivity

QVQLVESGGGLVQAGGSLRLSCAASGRTYTFYARGWYRQAPGKERELVAAITWGGGSTYYADSVKGRFTISRDNAKNTVYLQMNSLKPEDTAVYYCAAEWYEPVGSRWYSPYYYWGQGTQVTVSS
polyreactivity (PSR sort gate): high polyreactivity

QFQLVETGGGLVQAGGSLRLSCAASGRTFRFNAMGWYRQAPRKEREFVAAITSGGGTYYADSVKGRFTISRDNAKNPVYLQMNCLKPEDTAVYYCAAPRQYYLMVYWGQGTQVTVSS
polyreactivity (PSR sort gate): low polyreactivity

QVQLVESGGGLVQAGGSLRLSCAASGSIFVRNVMGWYRQAPGKERELVAGISWNGGSTFNADSVKGRFTISRDNAKNTVYLQMNSLKQEDTAVYYCAARGRHSGYYSFPYYYWGQGTQVTVSS
polyreactivity (PSR sort gate): low polyreactivity

QVQLVESGGGLVQAGGSLRLSCAASGFIFWRNAMGWYRQAPGKEREFVARISSSGGSTYYADSVKGRFTISRDNAKNTVYLQMNSLKPEDTAVYYCNADVWYRYGYFRYDYWGQGTQVTVSS
polyreactivity (PSR sort gate): high polyreactivity

QVQLVESGGGLVQAGGSLRLSCAASGFTFYGYAMGWYRQAPGKERELVAAISSSGTSTYYADSVKGRFTISRDNAKNTVYLQMNSLKPEDTAVYYCAALVRGAYGYGYWGQGTQVTVSS
polyreactivity (PSR sort gate): high polyreactivity
